In publication PMC12785156, “Hydroxylation of HPPD facilitates its PUB11-mediated ubiquitination and degradation in response to oxidative stress in Arabidopsis” (Plant Communications, 2025):

T1: full-length MBP-PUB11 (Arabidopsis thaliana, UniProt Q8GUG9 1-612)
T1 construct: U-box E3 ubiquitin ligase PUB11, Arabidopsis thaliana, full-length CDS in pMAL-C2x; not shown: MBP, N-terminal, kept
T1 sequence (looked up): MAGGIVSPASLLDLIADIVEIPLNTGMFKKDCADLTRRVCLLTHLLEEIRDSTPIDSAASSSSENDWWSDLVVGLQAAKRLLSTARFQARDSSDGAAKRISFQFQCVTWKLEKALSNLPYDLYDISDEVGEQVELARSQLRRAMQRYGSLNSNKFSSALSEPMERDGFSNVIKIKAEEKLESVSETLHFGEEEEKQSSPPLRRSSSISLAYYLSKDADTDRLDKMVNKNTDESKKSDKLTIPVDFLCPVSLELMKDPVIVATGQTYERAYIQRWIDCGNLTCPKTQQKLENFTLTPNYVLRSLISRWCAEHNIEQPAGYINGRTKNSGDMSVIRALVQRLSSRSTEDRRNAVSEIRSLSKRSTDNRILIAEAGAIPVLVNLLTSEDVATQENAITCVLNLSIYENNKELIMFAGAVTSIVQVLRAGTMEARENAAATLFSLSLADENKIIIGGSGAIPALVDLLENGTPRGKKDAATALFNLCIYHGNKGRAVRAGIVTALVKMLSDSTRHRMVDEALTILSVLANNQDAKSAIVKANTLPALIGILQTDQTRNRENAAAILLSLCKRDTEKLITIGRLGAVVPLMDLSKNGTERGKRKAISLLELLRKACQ

B1: His-AtHPPD (Arabidopsis thaliana 4-hydroxyphenylpyruvate dioxygenase) (enzyme, UniProt P93836 1-445, looked up)
chain: MGHQNAAVSENQNHDDGAASSPGFKLVGFSKFVRKNPKSDKFKVKRFHHIEFWCGDATNVARRFSWGLGMRFSAKSDLSTGNMVHASYLLTSGDLRFLFTAPYSPSLSAGEIKPTTTASIPSFDHGSCRSFFSSHGLGVRAVAIEVEDAESAFSISVANGAIPSSPPIVLNEAVTIAEVKLYGDVVLRYVSYKAEDTEKSEFLPGFERVEDASSFPLDYGIRRLDHAVGNVPELGPALTYVAGFTGFHQFAEFTADDVGTAESGLNSAVLASNDEMVLLPINEPVHGTKRKSQIQTYLEHNEGAGLQHLALMSEDIFRTLREMRKRSSIGGFDFMPSPPPTYYQNLKKRVGDVLSDDQIKECEELGILVDRDDQGTLLQIFTKPLGDRPTIFIEIIQRVGCMMKDEEGKAYQSGGCGGFGKGNFSELFKSIEEYEKTLEAKQLVG
notes: 4-hydroxyphenylpyruvate dioxygenase (AtHPPD), Arabidopsis thaliana, full-length CDS in pET-15b; For MST the His tag was labelled with RED-tris-NTA 2nd generation dye; A low level of self-hydroxylation of phenylalanines is reported also for the untreated protein; also called AtHPPD-WT; His-labeled AtHPPD; source: E. coli BL21(DE3), purified; not shown: His6, N-terminal, kept
B2: GST-PUB11-ARM (domain or fragment)
chain: QPAGYINGRTKNSGDMSVIRALVQRLSSRSTEDRRNAVSEIRSLSKRSTDNRILIAEAGAIPVLVNLLTSEDVATQENAITCVLNLSIYENNKELIMFAGAVTSIVQVLRAGTMEARENAAATLFSLSLADENKIIIGGSGAIPALVDLLENGTPRGKKDAATALFNLCIYHGNKGRAVRAGIVTALVKMLSDSTRHRMVDEALTILSVLANNQDAKSAIVKANTLPALIGILQTDQTRNRENAAAILLSLCKRDTEKLITIGRLGAVVPLMDLSKNGTERGKRKAISLLELLRKACQ
modifications: GST carrier omitted. Limits not printed: ARM region taken as everything after the U-box (240-314) to the C-terminus

Legend:
full-length MBP-PUB11 = molecular target: T1, full-length MBP-PUB11; test: pull-down; purified MBP-PUB11 full length or truncated variants (or MBP alone) with purified His-AtHPPD, 4°C; immunoblot with anti-His and anti-MBP; conditions: both partners purified
[1] = molecular target: B1; test: MST; His-AtHPPD (or mutants) labelled with RED-tris-NTA 2nd generation, constant 400 nM; GST-PUB11-ARM serially diluted; 25°C; 20 mM HEPES pH 8.0, 100 mM NaCl; three repeats; conditions: both partners purified

| Binder | binding result (full-length MBP-PUB11) | Kd [1] [µM] |
| --- | --- | --- |
| B1 | binds | – |
| B2 | – | 7.42 |
